Results: publication PMC9275567

Legend:
[1] = molecular target: RNA polymerase II (RNA Pol II) (human (endogenous in HeLa-Kyoto)) (UniProt P24928); test: cross-linking + co-IP
[2] = molecular target: FUsed in Sarcoma (FUS) in HeLa-Kyoto cells (human (endogenous in HeLa-Kyoto)) (UniProt P35637); test: cross-linking + co-IP

percent of cellular FUS cross-linked to RNA Pol II [1] [%] | percent of RNA Pol II cross-linked to FUS (large particles, >70 nm) [2] [%] | percent of RNA Pol II cross-linked to FUS (whole cell lysate) [2] [%] | Substance
21 |  |  | FUsed in Sarcoma (FUS) in HeLa-Kyoto cells (from UniProt P35637 1-526) (natural protein)
 | 69 | 87 | RNA polymerase II (RNA Pol II) (from UniProt P24928 1-1970) (complex)
